The record followed here is article PMC12141571.

For one data set the following is noted: phosphorylation at T188.
As for “Erk2: R65H+T188A vs R65H (HEK293, no EGF; TEY phosphorylation)”, the other entry is on record as “increases”.
On the same count and under the same terms, the result for “Erk2: R65H+T188E, R65H+T188D (recombinant; dual TEY autophosphorylation)” reads “decreases”; that for “Erk2: T188A (HEK293 + EGF; TEY phosphorylation)”, “increases”; that for “Erk2: T188A (HEK293, no EGF; TEY phosphorylation)”, “increases, 2–6 fold”.
As to “Erk2: T188A (recombinant protein, in vitro kinase assay)”, the enzymatic_activity result is reported as “abolishes”.
“Erk2: T188A (recombinant; dual TEY phosphorylation by MEK1EE in vitro)”: the other entry is recorded as “decreases, 2.2% doubly phosphorylated (Erk2WT 12.5%)”.
For the substance “Erk2: T188A (recombinant; spontaneous Tyr185 autophosphorylation)”, the other entry is reported as “increases, 84% monophosphorylated on Tyr185”.
For Erk2: T188C, the enzymatic_activity entry is listed as “no change”.
Regarding “Erk2: T188D (recombinant; dual TEY phosphorylation by MEK1EE in vitro)”, the other result is “decreases, 2.2% dually phosphorylated (Erk2WT 12.5%)”.
Regarding “Erk2: T188E, T188D (HEK293 + EGF; TEY phosphorylation)”, the other entry is given as “increases”.
As to “Erk2: T188E, T188D (recombinant protein, in vitro kinase assay)”, the enzymatic_activity result is “abolishes”.
For the substance Erk2: T188G, the enzymatic_activity entry is “decreases, to about 6%”.
With Erk2: T188N, the enzymatic_activity entry is listed as “abolishes”.
Consider Erk2: T188S, for which the enzymatic_activity entry is recorded as “increases”.

Still in this data set, the particulars now being: phosphorylation at T207.
Consider “Erk1: R84H+T207A vs R84H (HEK293, no EGF; TEY phosphorylation)”, for which the other result was “increases”.
With “Erk1: T207A (HEK293 + EGF; TEY phosphorylation)”, the other result is listed as “increases”.
For “Erk1: T207A (HEK293, no EGF; TEY phosphorylation)”, the other entry is on record as “increases, 2–6 fold”.
Take “Erk1: T207A (recombinant protein, in vitro kinase assay)”: the enzymatic_activity result was “abolishes”.
Take “Erk1: T207E, T207D (HEK293 + EGF; TEY phosphorylation)”: the other entry is given as “increases”.
On to “Erk1: T207E, T207D (recombinant protein, in vitro kinase assay)”, for which the enzymatic_activity result is recorded as “abolishes”.
